According to publication PMC4320081:

B1: TsalNb-5 (VHH)
VHH: QVQLQESGGGLVQPGGSLRLSCAGSGLTLDYYAMGWYRQAPGKQREGVSCITSSGGRTNYADSVKGRFTISRDNAKNTVSLQMNSLKPEDTAVYYCAATEWLAGTKCLLSHEYDYWGQGTQVTVSS
B2: TsalNb-8 (VHH)
VHH: QVQLQESGGGLVQPGGSLRLSCAASVLTLDYYAMAWYRQAPGKQREGVSCITSSGGRTNYADSVKGRFTISRDNAKNMVYLQMNSLKPEDTAVYYCAATEWLAGTKCLSSHEYDYWGQGTQVTVSS
B3: TsalNb-11 (VHH)
VHH: QVQLQESGGGLVQPGESLRLSCAASEFTLDYYAMAWYRQAPGKQREGVSCITSSGGRTNYADSVKGRFTISRENGKNTVYLQMSSLKPGDTAVYYCAATEWLAGTKCLGSHEYDYWGQGTQVTVSS
B4: TsalNb-1 (VHH)
VHH: QVQLQESGGGLVQVGGSLRLSCTASGSIFSINYANWYRQAPGKQRELVAGITSDGSTNYADSVKGRFTISRDNAKNTVYLQMNRLTPEDTAVYYCKPRAWLTGRWENYWGQGTQVTVSS
B5: TsalNb-12 (VHH)
VHH: QVQLQESGGGLVQPGGSLRLSCTASGSIFSINYANWYRQAPGKQRELVAGITSDGSTNYADSVKGRFTISRDNAKNTVYLQMNRLTPEDTAVYYCKPRAWLTGRWENYWGQGTQVTVSS
B6: TsalNb-2 (VHH)
VHH: QVQLQESGGGLVQVGGSLRLSCQASGSIFSNSYMGWYRQAPGKQRELVAGITSGGSTNYADSVKGRFTISRDNAKNTVYLQMNSLKPEDTAVYYCKPRAWLTGRWENYWGQGTQVTVSS
B7: TsalNb-4 (VHH)
VHH: QVQLQESGGGLVQVGGSLRLSCTASGSIFSINYAGWYRQAPGKQRELVAGITSGGSTNYADSVKGRFTISRDSAKNTVYLQMNSLKAEDTAVYYCKPRAWLTGRWENYWGQGTQVTVSS
B8: TsalNb-3 (VHH)
VHH: QVQLQESGGGLVQVGGSLRLSCAVSGSIFSNNYMGWYRQAPGKQRELVAGITSGGSTNYADSVKGRFTISRDNAKNTVYLQMNSLLPEDTAVYYCKPRGWLTGRWENYWGQGTQVTVSS
B9: TsalNb-10 (VHH)
VHH: QVQLQESGGGLVQVGGSLRLSCAASGSIFSNNYMGWYRQAPGKQRELVAGITSGGSTNYADSVKGRFTISRDNAKNTVYLQMNNLKPEDTAVYNCKPRGWLTGRWENYWGQGTQVTVSS
B10: TsalNb-5-HRP (VHH)
VHH: QVQLQESGGGLVQPGGSLRLSCAGSGLTLDYYAMGWYRQAPGKQREGVSCITSSGGRTNYADSVKGRFTISRDNAKNTVSLQMNSLKPEDTAVYYCAATEWLAGTKCLLSHEYDYWGQGTQVTVSS
B11: TsalNb-11-HRP (VHH)
VHH: QVQLQESGGGLVQPGESLRLSCAASEFTLDYYAMAWYRQAPGKQREGVSCITSSGGRTNYADSVKGRFTISRENGKNTVYLQMSSLKPGDTAVYYCAATEWLAGTKCLGSHEYDYWGQGTQVTVSS

Molecular target: native Tsal proteins in G. m. morsitans saliva (Glossina morsitans morsitans (endogenous in saliva))
Assay: SPR; 4000 RU G. m. morsitans saliva amine-coupled (10 mM sodium acetate pH 4.5) on a CM5 chip; purified Nb analytes 500 to 0.976 nM; BIAcore T200; contact 180 s, dissociation 600 s, 10 ul/min; Langmuir 1:1 fit

| Binder | Kd [nM] | koff [s⁻¹] | kon [M⁻¹ s⁻¹] |
| --- | --- | --- | --- |
| B1 | 4.4 | 0.004 | 910000 |
| B2 | 18 | 0.017 | 970000 |
| B3 | 2.7 | 0.0035 | 1.3e+06 |
| B4 | 0.44 | 0.00037 | 850000 |
| B5 | 0.47 | 0.00039 | 830000 |
| B6 | 0.64 | 0.00077 | 1.2e+06 |
| B7 | 0.44 | 0.0005 | 1.1e+06 |
| B8 | 0.54 | 0.00051 | 930000 |
| B9 | 0.79 | 0.001 | 1.3e+06 |

Molecular target: native Tsal proteins in G. m. morsitans saliva (Glossina morsitans morsitans (endogenous in saliva))
Assay: ELISA; competitive ELISA: 250 ng G. m. morsitans saliva coated per well, plasma (immune, naive or control) applied 1 h, then HRP-conjugated Nb (1:160 or 1:320) 1 h; ABTS, O.D. 405 nm

| Binder | mean endpoint O.D.405nm of controls (control porcine plasma) |
| --- | --- |
| B10 | 2.23 O.D._(405nm) |
| B11 | 2.29 O.D._(405nm) |

Molecular target: native Tsal proteins in G. m. morsitans saliva (Glossina morsitans morsitans (endogenous in saliva))
Assay: as above
Remark: another data set of the same source

| Binder | mean endpoint O.D.405nm of controls (control mouse plasma) | mean endpoint O.D.405nm of controls (control porcine plasma) |
| --- | --- | --- |
| B10 | 2.26 O.D._(405nm) | 2.31 O.D._(405nm) |
| B11 | 2.35 O.D._(405nm) | 2.24 O.D._(405nm) |
